According to IntAct's records for PubMed 27150043:

Target: ab1ip_mouse Apbb1ip (UniProt Q8R5A3)
Chain of UniProt Q8R5A3 (Q8R5A3 whole entry): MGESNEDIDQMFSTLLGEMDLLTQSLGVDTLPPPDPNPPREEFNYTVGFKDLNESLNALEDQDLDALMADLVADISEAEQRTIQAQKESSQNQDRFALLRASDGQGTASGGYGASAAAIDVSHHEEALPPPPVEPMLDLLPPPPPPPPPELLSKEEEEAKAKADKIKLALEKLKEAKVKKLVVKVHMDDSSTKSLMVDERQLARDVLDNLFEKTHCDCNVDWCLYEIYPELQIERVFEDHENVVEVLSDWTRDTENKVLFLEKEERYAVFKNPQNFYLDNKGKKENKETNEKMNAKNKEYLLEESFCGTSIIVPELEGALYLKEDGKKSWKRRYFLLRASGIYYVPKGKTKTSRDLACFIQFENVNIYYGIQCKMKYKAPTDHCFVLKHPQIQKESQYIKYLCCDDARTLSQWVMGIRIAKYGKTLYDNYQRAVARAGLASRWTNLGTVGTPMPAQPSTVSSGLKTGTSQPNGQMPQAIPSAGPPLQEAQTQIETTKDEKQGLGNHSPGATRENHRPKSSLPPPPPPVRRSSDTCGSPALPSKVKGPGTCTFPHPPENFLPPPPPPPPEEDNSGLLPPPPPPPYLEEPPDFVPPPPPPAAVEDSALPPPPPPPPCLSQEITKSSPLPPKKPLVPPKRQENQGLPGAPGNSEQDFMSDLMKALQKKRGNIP

effect of a mutation on the interaction	Substance
decreasing interaction strength	Talin-1 (Mus musculus), P26039 E1794Y;E1797Y;Q1801Y
decreasing interaction strength	Talin-1 (Mus musculus), P26039 E1794Y;E1797Y
